± gives the half width of the 95% confidence interval.
Legend:
[1] = folding stability dG unfold (combined trypsin and chymotrypsin); higher = more stable
Procedure, shortened: (§1)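 Only designs with AlphaFold2 dimer inter-PAE above 15 were retained; each was a mini-protein under 80 residues with no cysteine, in a PA-tagged cDNA display construct. After digestion with trypsin and chymotrypsin and sequencing, K50 was inferred by Bayesian fitting of counts, and unfolding free energy was derived per protease or combined against a sequence-predicted unfolded-state K50 and a shared folded-state K50.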

[2] = folding stability dG unfold from chymotrypsin proteolysis; higher = more stable
Procedure, shortened: as §1

[3] = folding stability dG unfold from trypsin proteolysis; higher = more stable
Procedure, shortened: as §1

Sequence	folding stability dG unfold [1]	folding stability dG unfold [2]	folding stability dG unfold [3]
SAGGSAGGSSMTLTIEPPEEGPPLLVEVDETEEIVTGDGTPVKVTTLKITIGEEEMTLTVTTLSAGGSAGGS [r20_39_JUSTAS]	2.1 ± 0.15 kcal/mol	2.46 ± 0.057 kcal/mol	1.71 ± 0.098 kcal/mol
SAGVTITTNPESGTVTITIPFPDGSSATIELNYGGSLPTKPSITSFKVNPYDNGKPIIPADELVKKILSSAG [r5_842_TrMRF]	1.39 ± 0.35 kcal/mol	1.57 ± 0.13 kcal/mol	0.96 ± 0.056 kcal/mol
SAGGSAGGLYIVRIEIYHPENGKEWTIMIPVPSEEEAKEEAEELAKTFAKKNGYKIEVEVFPLPSAGGSAGG [r6_787_TrROS]	2.11 ± 0.1 kcal/mol	2.5 ± 0.067 kcal/mol	1.53 ± 0.033 kcal/mol
SAGGSAGMVSLTTTTTPVETRTLPDGTVVTLEKTELPDDTVVLTTTTTDPATGEVTTETTTVSLAGSAGGSA [r15_401_JUSTAS]	0.884 ± 0.11 kcal/mol	1.11 ± 0.022 kcal/mol	0.409 ± 0.026 kcal/mol
SAKVKISIEFDKKTNKVTIKVKYKGDKEKEKEITLSLEELQKKLGKPLSLEEIIKLLKEKGIDEVEIYPSAG [r14_809_TrROS_Hall]	4.06 ± 0.15 kcal/mol	4.26 ± 0.093 kcal/mol	3.44 ± 0.14 kcal/mol
SAGGSASTPDGKTKTYTNTNPGATEEEVKPIAEEIAKEIAEKLGLDLSEIGISVSYDPNTGTISPLIGSAGG [r13_913_JUSTAS]	-0.105 ± 0.59 kcal/mol	-0.321 ± 0.49 kcal/mol	-0.00514 ± 0.061 kcal/mol
SAGGSEWQPIYEFDLPGKKIKVYMPPDGNYRIEVEKKGKPVNFWVPPNMSPSSIDNMLDQAKEQLNSAGGSA [r2_243_TrROS]	0.343 ± 0.26 kcal/mol	0.339 ± 0.16 kcal/mol	-0.0661 ± 0.25 kcal/mol
SAGGSAGGSMKIRIERTPDKLTIMIPPDNPDKIKNIIDNFGYPITDVKVTQNPPGMHMIEIPLSAGGSAGGS [r12_493_TrROS]	1.51 ± 0.19 kcal/mol	1.47 ± 0.082 kcal/mol	1.58 ± 0.095 kcal/mol
SAGGSAIEPGQKVLVLFPEDGGLATLTFDPTTRTVEIEVGGERRTYPVDSLQDVLDELGAEVLSTDSAGGSA [r15_500_TrMRF]	1.82 ± 0.072 kcal/mol	1.74 ± 0.037 kcal/mol	2.12 ± 0.037 kcal/mol
SAGGMDPDDLKGMPPEQAKDIVRDWIREYMQERNPNMPPGMKITDVPVEVRDPDNGKEIEVKVEIENYSAGG [r13_555_TrROS]	-0.242 ± 0.33 kcal/mol	-0.00917 ± 0.33 kcal/mol	-0.936 ± 0.37 kcal/mol
SADKVMIMFRSPQTFRRILREALKTDKPVYLMFPPKWMDELKELGFPNVKIEPQKNPNGGPYYMFELPVSAG [r14_127_TrROS]	1.79 ± 0.18 kcal/mol	1.75 ± 0.12 kcal/mol	1.83 ± 0.044 kcal/mol
SAGGSAGGSAGTLTFTFDGVTVEVRLVDGYLVIRVTTEVEVNGKKYKVTLELVIKLPEGLSAGGSAGGSAGG [r11_879_TrROS_Hall]	5.49 ± 0.28 kcal/mol	5.4 ± 0.28 kcal/mol	4.5 ± 0.41 kcal/mol
SAGGMPVGVARVRTEAGDKVLEFTVEVPADVGAVEIRVKLKPDPLTGEPVVEEILEVRTYRAPPDVELSAGG [r13_568_TrMRF]	0.887 ± 0.055 kcal/mol	0.837 ± 0.075 kcal/mol	0.84 ± 0.047 kcal/mol
SAGMTIRIVVPKKDMSVEELAKKLKEELGLPEDAKVTIKVEKLPNGELVLTITVPSEEERKKIEELLKSAGG [r19_215_TrROS_Hall]	2.98 ± 0.25 kcal/mol	2.91 ± 0.15 kcal/mol	2.9 ± 0.13 kcal/mol
SAGGSASMTLYRDEEGKPLFHHSPEPTSSVPRVVPVVNEEGDEKLEIEIPADTPLEELEAIIEELLSAGGSA [r15_309_JUSTAS]	-0.0861 ± 0.096 kcal/mol	-0.33 ± 0.18 kcal/mol	0.0733 ± 0.04 kcal/mol
SAGGSAGGSAGVKEGEEIEITLENGKTFTAKIEYDKETGYYKITIKDKKTNKEYEFVFKVSAGGSAGGSAGG [r11_960_TrROS_Hall]	4.04 ± 0.22 kcal/mol	4.39 ± 0.17 kcal/mol	2.62 ± 0.3 kcal/mol
SAGGSAGGSAGGSMKTVELSSEEEAKKIVEEAKKKGIPLTLVLTDPKTGNPKTFEFPLASAGGSAGGSAGGS [r4_188_JUSTAS]	0.0568 ± 0.48 kcal/mol	-0.248 ± 0.41 kcal/mol	-0.213 ± 0.22 kcal/mol
SAGGSAGGSLVIPLPNGGRIEVLEVGEDYVLVRLVDPMPGTNKPRVSEIRLKLPPLKPPPPDKSAGGSAGGS [r12_959_TrMRF]	2.28 ± 0.11 kcal/mol	2.14 ± 0.032 kcal/mol	2.36 ± 0.073 kcal/mol
SAGGSAGGSKKKVKVVKVEKLEDGSVRVLLYNEDGELVLEIEFPPGMTEEEVEELVKKLLEELSAGGSAGGS [r12_798_TrROS_Hall]	2.69 ± 0.13 kcal/mol	2.72 ± 0.13 kcal/mol	2.47 ± 0.1 kcal/mol
AELEAEVVSVEEVNGETVVVVRVDGELVVRTFRPPPPRPLSLEELKRLAEELREQNPELAEEAEKLLEALAS [r1_330_TrROS_Hall]	2.33 ± 0.26 kcal/mol	2.19 ± 0.11 kcal/mol	2.49 ± 0.12 kcal/mol
SAGGVIPPSATITTLKTYPDGTVLTNVTFPDGTPMTVTLTRETLPDGSVVLKFTNPATGEELATFPVSSAGG [r13_527_JUSTAS]	2.15 ± 0.088 kcal/mol	2.15 ± 0.062 kcal/mol	1.93 ± 0.063 kcal/mol

Sequence	folding stability dG unfold [1]	folding stability dG unfold [2]	folding stability dG unfold [3]
SKKKKIIKIDIKPEDIEKGIKAVREAIKKAKEAEPDTEVIIDFHFESDYPEKVKEIEDLFKKENIPLKIGSA [r9_1202_TrMRF]	1.31 ± 0.18 kcal/mol	0.883 ± 0.048 kcal/mol	1.39 ± 0.11 kcal/mol
SAGGSAGGSAGGMKVERVEVVELPNGQRVLTRTLEVVPPDGSSRVLETEVRFYPPDEALLSAGGSAGGSAGG [r7_917_JUSTAS]	0.0413 ± 0.065 kcal/mol	0.291 ± 0.06 kcal/mol	-0.666 ± 0.38 kcal/mol
SAGGWYLRIEPDDGRELEIPMNDPGLPLEDLADKLMKDMPGPMKIKVEFYHPNKPVEHTIKIPLPKNSAGGS [r16_216_TrROS]	0.423 ± 0.28 kcal/mol	0.436 ± 0.33 kcal/mol	0.443 ± 0.11 kcal/mol
SAGGSAGPTTTPTTYARITATLRKGGETITVELEVPTSVVEEAVEALAKELGVEIEKVEVTLTEERSAGGSA [r15_535_JUSTAS]	2.3 ± 0.08 kcal/mol	2.4 ± 0.042 kcal/mol	2.08 ± 0.027 kcal/mol
SAGGSAGGSAKELLKNIEKVEIIKNKKTNKYTIRIKNKNGKVYEFEFKSLEEALKKAGIKPSAGGSAGGSAG [r3_36_TrROS_Hall]	2.93 ± 0.073 kcal/mol	3.19 ± 0.038 kcal/mol	2.24 ± 0.041 kcal/mol
SAGGSMELKPGDSIEFPENIPLDEIIELAKKIAEEFNFEGIEDIENPSEGFYRIRAITPDGRPIEISAGGSA [r2_168_TrMRF]	0.0617 ± 0.18 kcal/mol	0.141 ± 0.18 kcal/mol	-0.147 ± 0.23 kcal/mol
SAGGMRVERSTSPSGEPVLLITLYLPDGTRVAEAPLRLDPARGGLTEEELEAVLKEIDLPEDVEVELRSAGG [r13_479_JUSTAS]	0.482 ± 0.14 kcal/mol	0.468 ± 0.16 kcal/mol	0.517 ± 0.11 kcal/mol
SAGGSAGGSSPLLEAALEIAKTLPPDSEVELPILNPETGTFVRVRVVYDEETGEFKVESVEFSSAGGSAGGS [r12_186_TrMRF]	1.54 ± 0.1 kcal/mol	1.44 ± 0.12 kcal/mol	1.5 ± 0.018 kcal/mol
SAGGSAGGSAGGMVVLENGDEVIVETFEFEEPVLDDVSEELREELGVVKVTVTKVTVIRRSAGGSAGGSAGG [r7_324_JUSTAS]	1.11 ± 0.13 kcal/mol	1.15 ± 0.059 kcal/mol	1.08 ± 0.069 kcal/mol
SAGGMKIEGMTPEEVEALAKALAEAGYEVVSVTVTYDPETDTVTVTVVVRDKKTGEIKKVVTVTLPPSAGGS [r16_750_TrROS_Hall]	2.99 ± 0.072 kcal/mol	2.69 ± 0.069 kcal/mol	3.33 ± 0.1 kcal/mol
SAGDLSPSDTVDLEVTPVKVGDKWVHEVRVTVTLPDGSSLRSTLRLPPELGPPRRGRLSVPEFVALVAASAG [r5_831_JUSTAS]	2.14 ± 0.11 kcal/mol	2.39 ± 0.044 kcal/mol	1.85 ± 0.024 kcal/mol
SALGEEEVLRALKAAAAPLPKVEPVLRKVTVLVPETGEPFEVEVLAYRLENGEIFPVPAEATEALAEALASA [r9_1056_TrMRF]	-0.274 ± 0.19 kcal/mol	-0.1 ± 0.41 kcal/mol	-0.549 ± 0.36 kcal/mol
SAGGIKLPPWFKKLADILQEEGYKIRIEPVNGYWVIRVDGKVYPSPEDMEDNRDDPGVDRVIVIPFPSAGGS [r16_275_TrROS]	3.26 ± 0.15 kcal/mol	3.45 ± 0.12 kcal/mol	2.78 ± 0.14 kcal/mol
SAGGSAGGSAGGSKAKKITIWIPPGNINPEVKDQLQKEGINIEIQPIPAKRDPDGKPRWSAGGSAGGSAGGS [r4_294_TrROS]	0.81 ± 0.14 kcal/mol	1.2 ± 0.036 kcal/mol	-0.558 ± 0.34 kcal/mol
SAGIKIEVEPSPGNGWYRIRIENPDLRKKLNEKFPDLKEITFPFKNPEDMPWEEMREHAIDQIKEFLPSAGG [r19_298_TrROS]	0.64 ± 0.24 kcal/mol	1.03 ± 0.15 kcal/mol	-0.197 ± 0.29 kcal/mol
SAGGNWKIRNPKNGRTIEIDNFNPGNGMFRVKVWNPNGNKEEHPIPGSLEEILEFLQKKGWPVEIERSAGGS [r16_748_TrROS]	0.626 ± 0.23 kcal/mol	0.888 ± 0.2 kcal/mol	0.27 ± 0.21 kcal/mol
SAGGMPVPVKIEIIDDPGTLIITTPNGKPYTIPIPPNSIEEITIDPEKKVIKIKLKDGEIIIDVPDGSAGGS [r16_104_TrMRF]	1.88 ± 0.11 kcal/mol	1.87 ± 0.038 kcal/mol	1.62 ± 0.072 kcal/mol
SAGGITIEWERNPDGYPNIKIQIRAPNGKKVAKLPIQFDPNDGGMTKLDLKKLLKEINLPPNVEVEFISAGG [r13_479_TrROS]	1.34 ± 0.13 kcal/mol	1.22 ± 0.13 kcal/mol	1.45 ± 0.05 kcal/mol
SAGGSDEVTIDFQVKYNGQPFTVRITIERDPPDGKIEIPVEISYPNPEMREPAREIARNIVRELLNSAGGSA [r2_259_TrROS]	1.32 ± 0.095 kcal/mol	1.66 ± 0.17 kcal/mol	0.873 ± 0.07 kcal/mol
SAGGSAGGSAGGENPVDFKARVELLSGVVELTYTNEDGEPTTTLEEVVALKIEIEPSNNSAGGSAGGSAGGS [r10_1212_TrMRF]	1.65 ± 0.073 kcal/mol	1.81 ± 0.062 kcal/mol	1.23 ± 0.046 kcal/mol
SAGGMSITLTPDDGSTLTIPLSDPTLSLEEVVQMVVDKQEGAVNIQVTITFPDSEVTKTYTIPSPGGSAGGS [r16_216_JUSTAS]	0.605 ± 0.13 kcal/mol	0.275 ± 0.13 kcal/mol	0.846 ± 0.041 kcal/mol

Reference: the supplement of paper PMC12764529
